{
  "source": "paper PMC4576867",
  "about": "(The Journal of Cell Biology, 2015)",
  "target": "the molecule itself",
  "assay": "AUC",
  "data": [
    {"protein": "cytosolic domain of S. cerevisiae Sey1p (residues 1-680) (domain or fragment, UniProt Q99287 1-680, looked up) MADRPAIQLIDEEKEFHQSALQYFQQCIGNRDVGLDYHVISVFGSQSSGKSTLLNVLFNTNFDTMDAQVKRQQTTKGIWLAHTKQVNTTIEIDNDRPDIFVLDVEGSDGSERGEDQDFERKAALFAIAVSEVLIVNMWEQQIGLYQGNNMALLKTVFEVNLSLFGKNDNDHKVLLLFVIRDHVGVTPLSSLSDSVTRELEKIWTELSKPAGCEGSSLYDYFDLKFVGLAHKLLQEDKFTQDVKKLGDSFVMKGTENYYFKPQYHHRLPLDGWTMYAENCWDQIERNKDLDLPTQQILVARFKTEEISNEALEEFISKYDESIAPLKGNLGSLTSQLVKLKEECLTKYDEQASRYARNVYMEKREALNTKLNSHISGTINEFLESLMEKLWDDLKLEVSSRDKATTSFVESVAAGKSKIEKEFNESMETFKKLGLLISNEEITCKFSDDIEERIKQLRDAELKAKIGRIKKNLVPELKDHVIHLLSHPSKKVWDDIMNDFESTIKDNISAYQVEKDKYDFKIGLSESENAKIYKNIRILAWRTLDTTVHDYLKIDTIVSILRDRFEDVFRYDAEGSPRLWKTEEEIDGAFRVAKEHALEVFEVLSLAVTSDNVEIIPDVPMAEEESGEDNEIYRDNEGVFHSRRFAHILTELQKENVLDQFRRQINITVLDSKRSIITTRT", "values": [
      {"measurement": "stoichiometry N", "value": 2}
    ]}
  ]
}
